According to US20210300999A1:

How the values were obtained:
Conditions in all cases: remark: other sources report otherwise
[1] = target: SARS-CoV-2 Spike trimer (Table A) (SARS-CoV-2), P0DTC2; assay: ELISA, purified IgG
[2] = target: T1, SARS-CoV-2 prefusion-stabilized trimeric spike ectodomain (S2Pecto) (SARS-CoV-2), P0DTC2; assay: ELISA on coated antigen
[3] = target: T1, SARS-CoV-2 prefusion-stabilized …; assay: hACE2 blocking ELISA on coated S2Pecto; competitor hACE2

Row | Binder | ELISA OD 450 nm [1] | EC50 [2] | IC50 [3]
1 | COV2-2391 (antibody, V domains shown) VH: QVQLVQSGAEVKKPGASVKVSCKASGYTFGSFDINWVRQATGQGLEWMGRMNSNSGNTAYAQKFQGRVTMTRDTSTNTAYMELSSLRSEDTAMYYCARMRSGWPTHGRPDDFWGRGTLVTVSS VL: QSVLTQAPSASGTPGQRVTISCSGSNSNIGSYTINWYQQLPGTAPKLLIYGNDQRTSGVPDRFSGSKFGTSASLAISGLQSEDENNYYCAVWDDSLNGLVFGGGTKLTVL | 3.57 OD 450 nm | – | –
2 | COV2-2096 (antibody, V domains shown) VH: QVQLVQSGAEVKKPGASVKVSCKASGYTFGSFDINWVRQATGQGLEWMGRMNSNSGNTAYAQKFQGRVTMTRDTSTNTAYMELSSLRSEDTAMYYCARMRSGWPTHGRPDDFWGRGTLVTVSS VL: QSVLTQAPSASGTPGQRVTISCSGSNSNIGSYTINWYQQLPGTAPKLLIYGNDQRTSGVPDRFSGSKFGTSASLAISGLQSEDENNYYCAVWDDSLNGLVFGGGTKLTVL | 4.3 OD 450 nm | 0.001 mg/L | 0.067 mg/L
3 | COV2-2165 (antibody, V domains shown) VH: EVQLVESGGGLVQPGGSLRLSCAASGLTVRSNYMTWVRQTPGKGLEWVSVIYSGGSTFYADSVKGRFTISRDNSKNTVYLQMNSLRAEDTAVYYCARDLVTYGLDVWGQGTTVTVSS VL: DIQLTQSPSFLSASVGDRVTITCRASQGISNYLAWYQQKPGTAPNLLIYAASTLQSGVPSRFSGSGSGTEFTLTISSLQPEDFATYYCQLLNSHPLTFGQGTRLEIK | 4.2 OD 450 nm | 0.0014 mg/L | 0.062 mg/L
4 | COV2-2952 (antibody, V domains shown) VH: EVQLVESGGGLVQPGGSLRLSCAASGLTVRSNYMTWVRQTPGKGLEWVSVIYSGGSTFYADSVKGRFTISRDNSKNTVYLQMNSLRAEDTAVYYCARDLVTYGLDVWGQGTTVTVSS VL: DIQLTQSPSFLSASVGDRVTITCRASQGISNYLAWYQQKPGTAPNLLIYAASTLQSGVPSRFSGSGSGTEFTLTISSLQPEDFATYYCQLLNSHPLTFGQGTRLEIK | 3.54 OD 450 nm | – | –
